The supplement of paper PMC9233669
Variants at the floor of the assay were thinned out.

Legend:
biotinyl-Phe-oxazolone = assay: self-aminoacylation, catalytic enhancement (BFO) (fold over background); higher = more active; k-Seq, kA / k0A0; sequences stand for … in GGGAAUGGAUCCACAUCUACGAAUUC…UUCACUGCAGACUUGACGAAGCUG
Summary of the method: (§1)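 Mutagenized RNA pools with a 21-nt variable region (0.43 μM) reacted with each biotinyl-aminoacyl-oxazolone at 2–1250 μM. Reactions ran in 50 μL HEPES/NaCl/KCl/MgCl2/CaCl2 buffer with 5% acetonitrile, pH 6.9–7.0, for 90 minutes at room temperature. Streptavidin-captured RNA was quantified by triplicate qPCR and Illumina sequencing, and per-sequence fraction reacted was fit to a pseudo-first-order model with 1000 bootstraps. Catalytic enhancement is median kA divided by the uncatalyzed rate, the low-activity peak of a bimodal Gaussian fit.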

biotinyl-Ile-oxazolone = assay: self-aminoacylation, catalytic enhancement (BIO) (fold over background); higher = more active; k-Seq, kA / k0A0; sequences stand for … in GGGAAUGGAUCCACAUCUACGAAUUC…UUCACUGCAGACUUGACGAAGCUG
Summary of the method: as §1

biotinyl-Met-oxazolone = assay: self-aminoacylation, catalytic enhancement (BMO) (fold over background); higher = more active; k-Seq, kA / k0A0; sequences stand for … in GGGAAUGGAUCCACAUCUACGAAUUC…UUCACUGCAGACUUGACGAAGCUG
Summary of the method: as §1

biotinyl-Val-oxazolone = assay: self-aminoacylation, catalytic enhancement (BVO) (fold over background); higher = more active; k-Seq, kA / k0A0; sequences stand for … in GGGAAUGGAUCCACAUCUACGAAUUC…UUCACUGCAGACUUGACGAAGCUG
Summary of the method: as §1

biotinyl-Leu-oxazolone = assay: self-aminoacylation, catalytic enhancement (BLO) (fold over background); higher = more active; k-Seq, kA / k0A0; sequences stand for … in GGGAAUGGAUCCACAUCUACGAAUUC…UUCACUGCAGACUUGACGAAGCUG
Summary of the method: as §1

biotinyl-Trp-oxazolone = assay: self-aminoacylation, catalytic enhancement (BWO) (fold over background); higher = more active; k-Seq, kA / k0A0; sequences stand for … in GGGAAUGGAUCCACAUCUACGAAUUC…UUCACUGCAGACUUGACGAAGCUG
Summary of the method: as §1

Sequence	self-aminoacylation (biotinyl-Phe-oxazolone)	self-aminoacylation (biotinyl-Ile-oxazolone)	self-aminoacylation (biotinyl-Met-oxazolone)	self-aminoacylation (biotinyl-Val-oxazolone)	self-aminoacylation (biotinyl-Leu-oxazolone)	self-aminoacylation (biotinyl-Trp-oxazolone)
AUUACCCUGGUCGUCGAGUAA [Fam2.1 aminoacylation ribozyme variant]	1.08	1.27	1.3	1.12	1.68	0.721
AUUACCCUGGUCGUCGAGUCA [Fam2.1 aminoacylation ribozyme variant]	0.524	1.05	0.904	1.05	0.956	0.444
AUUACCCUGGUCUCCGAGUGA [Fam2.1 aminoacylation ribozyme variant]	64.4	3.95	7.41	4.33	8.91	9.46
AUUACCCUGGUCUUCAAGUGA [Fam2.1 aminoacylation ribozyme variant]	23.8	2.76	4.91	2.67	4.28	5.67
AUUACCCUGGUCUUCCAGUGA [Fam2.1 aminoacylation ribozyme variant]	31.7	3.79	5.48	3.51	5.94	6.46
AUUACCCUGGUCUUCGAGUCA [Fam2.1 aminoacylation ribozyme variant]	0.638	0.953	0.844	0.873	0.903	0.688
AUUACCCUGGUCUUCGAGUGG [Fam2.1 aminoacylation ribozyme variant]	4.91	0.992	1.34	1.07	1.69	0.855
AUUACCCUGGUCUUCGCGUGA [Fam2.1 aminoacylation ribozyme variant]	55.2	5.89	9.58	6.16	9.77	11.5
AUUACCCUGGUCUUCGUGUGA [Fam2.1 aminoacylation ribozyme variant]	7.45	1.05	1.46	1.02	1.45	1.93
AUUACCCUGGUGAUCGCGUGA [Fam2.1 aminoacylation ribozyme variant]	44.2	3.45	4.66	4.19	4.38	6.27
AUUACCCUGGUGCUCGAGUGA [Fam2.1 aminoacylation ribozyme variant]	25	2.14	3.93	2.38	4.67	5.2
AUUACCCUGGUGUUCGAGUGA [Fam2.1 aminoacylation ribozyme variant]	45.5	2.73	5.65	3.21	6.71	7.61
AUUACCCUGGUUAUCGAGUAA [Fam2.1 aminoacylation ribozyme variant]	1.44	1.31	1.44	1.24	1.32	1.89
AUUACCCUGGUUAUCGAGUGA [Fam2.1 aminoacylation ribozyme variant]	25.2	3.83	8.65	4.27	8.64	10.3
AUUACCCUGGUUAUCGGGUGA [Fam2.1 aminoacylation ribozyme variant]	94.3	5.12	12.8	6.66	13.6	14.8
AUUACCCUGUUAAUCGAGUGA [Fam2.1 aminoacylation ribozyme variant]	54.5	4.91	9.91	5.36	9.68	13.4
AUUACCCUGUUCACCGAGUGA [Fam2.1 aminoacylation ribozyme variant]	77.2	4.79	11	5	11.6	12.7
AUUACCCUGUUCAUCCAGUGA [Fam2.1 aminoacylation ribozyme variant]	23	3.76	5.95	3.52	5.85	8.43
AUUACCCUGUUCAUCGAGUGA [Fam2.1 aminoacylation ribozyme variant]	16.6	2.97	5.57	3.22	5.44	7.34
AUUACCCUGUUCAUCGGGUGA [Fam2.1 aminoacylation ribozyme variant]	64.2	4.92	9.44	5.19	9.74	12
AUUACCCUGUUCGUCGAGUGA [Fam2.1 aminoacylation ribozyme variant]	0.834	1.15	0.885	1.2	0.865	1.44
AUUACCCUGUUCUUCGAGUGA [Fam2.1 aminoacylation ribozyme variant]	23.3	3.05	5.6	3.41	5.58	7.83
AUUACCCUUAUCAUCGAGUGA [Fam2.1 aminoacylation ribozyme variant]	60.8	5.68	14.1	6.51	13.2	16.7
AUUACCCUUGUCAUCAAGUGA [Fam2.1 aminoacylation ribozyme variant]	12.5	2.2	4.86	2.77	4.43	6.3
AUUACCCUUGUCAUCUAGUGA [Fam2.1 aminoacylation ribozyme variant]	26.5	3.76	7.09	3.81	7.22	8.68
